Test results published in US20250154283A1 (published 2025).

T1: His-StrepTagII-HRV3C-cyno VWF-CK-HA-tag (cynomolgus monkey)
T1 construct: also called recombinant cyno CK domain; cyno CK
T1 chain: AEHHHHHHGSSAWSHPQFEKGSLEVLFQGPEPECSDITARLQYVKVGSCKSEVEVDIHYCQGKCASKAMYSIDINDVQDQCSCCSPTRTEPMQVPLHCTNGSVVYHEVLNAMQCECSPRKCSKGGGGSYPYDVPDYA


How the values were obtained:
[1] = target: T2, human plasma-derived von Willebrand Factor (VWF) (human, UniProt P04275 764-2813); assay: VWF:FVIIIB enzyme immunoassay, FVIII binding capacity of plasma VWF after incubation with 200 or 600 nM antibody; FVIII as the partner tested
T2 construct: also called pd-VWF; human plasma-derived VWF

[2] = target: T1, His-StrepTagII-HRV3C-cyno VWF-CK-HA-tag; assay: solution-phase equilibrium binding, unbound antibody by ELISA
[3] = target: human plasma-derived von Willebrand Factor (VWF)

VWF:FVIII level (% of untreated donor-matched plasma) [1] | fold change in Kd, cyno CK against human CK [2] | Binder | VWF multimer distribution (LMW/IMW/HMW) after ristocetin, in the presence of 600 nM Lib1_P1_A6 OA [3] | VWF multimer distribution (LMW/IMW/HMW) after ristocetin, in the presence of 600 nM Lib1_P1_A9 OA [3]
> 80% | < 2 fold | Lib1_P1_A9 OA (antibody, human IgG4 S228P, kappa, F234A L235A, also called monovalent (one-arm) Lib1_P1_A9) heavy: QVQLVQSGAEVKKPGASVKVSCKVSGDTLSSYGIHWVRQAPGKGLEWMGGSIPSFGTAIYAQKFQGRVTMTEDTSTDTAYMELSSLKSEDTAVYYCTSEGPWLPFFSFDYWGQGTLVTVSSASTKGPSVFPLAPCSRSTSESTAALGCLVKDYFPEPVTVSWNSGALTSGVHTFPAVLQSSGLYSLSSVVTVPSSSLGTKTYTCNVDHKPSNTKVDKRVESKYGPPCPPCPAPEAAGGPSVFLFPPKPKDTLMISRTPEVTCVVVDVSQEDPEVQFNWYVDGVEVHNAKTKPREEQFNSTYRVVSVLTVLHQDWLNGKEYKCKVSNKGLPSSIEKTISKAKGQPREPQVYTLPPSQEEMTKNQVSLSCAVKGFYPSDIAVEWESNGQPENNYKTTPPVLDSDGSFFLVSRLTVDKSRWQEGNVFSCSVMHEALHNHYTQKSLSLSLG ESKYGPPCPPCPAPEAAGGPSVFLFPPKPKDTLMISRTPEVTCVVVDVSQEDPEVQFNWYVDGVEVHNAKTKPREEQFNSTYRVVSVLTVLHQDWLNGKEYKCKVSNKGLPSSIEKTISKAKGQPREPQVYTLPPSQEEMTKNQVSLWCLVKGFYPSDIAVEWESNGQPENNYKTTPPVLDSDGSFFLYSRLTVDKSRWQEGNVFSCSVMHEALHNHYTQKSLSLSLG light: DIQMTQSPSSVSASVGDRVTITCRASQGISRNLAWYQQKPGKAPKLLIYKASSLASGVPSRFSGSGSGTDFTLTISSLQPEDFANYYCQQSFSTPVTFGGGTKVEIKRTVAAPSVFIFPPSDEQLKSGTASVVCLLNNFYPREAKVQWKVDNALQSGNSQESVTEQDSKDSTYSLSSTLTLSKADYEKHKVYACEVTHQGLSSPVTKSFNRGEC | – | –
> 80% | < 2 fold | Lib1_P1_A6 OA (antibody, human IgG4 S228P, kappa, F234A L235A, monovalent one-arm human IgG4; also called monovalent (one-arm) Lib1_P1_A6) heavy: QVQLVQSGAEVKKPGASVKVSCKVSGSTFSNYAIHWVRQAPGKGLEWMGGIVPLSGTAIYAQKFQGRVTMTEDTSTDTAYMELSSLKSEDTAVYYCARDQGESSGWYAIYYGMDVWGQGTTVTVSSASTKGPSVFPLAPCSRSTSESTAALGCLVKDYFPEPVTVSWNSGALTSGVHTFPAVLQSSGLYSLSSVVTVPSSSLGTKTYTCNVDHKPSNTKVDKRVESKYGPPCPPCPAPEAAGGPSVFLFPPKPKDTLMISRTPEVTCVVVDVSQEDPEVQFNWYVDGVEVHNAKTKPREEQFNSTYRVVSVLTVLHQDWLNGKEYKCKVSNKGLPSSIEKTISKAKGQPREPQVYTLPPSQEEMTKNQVSLSCAVKGFYPSDIAVEWESNGQPENNYKTTPPVLDSDGSFFLVSRLTVDKSRWQEGNVFSCSVMHEALHNHYTQKSLSLSLG ESKYGPPCPPCPAPEAAGGPSVFLFPPKPKDTLMISRTPEVTCVVVDVSQEDPEVQFNWYVDGVEVHNAKTKPREEQFNSTYRVVSVLTVLHQDWLNGKEYKCKVSNKGLPSSIEKTISKAKGQPREPQVYTLPPSQEEMTKNQVSLWCLVKGFYPSDIAVEWESNGQPENNYKTTPPVLDSDGSFFLYSRLTVDKSRWQEGNVFSCSVMHEALHNHYTQKSLSLSLG light: DIQMTQSPSSVSASVGDRVTITCRASQGIGTWLAWYQQKPGKAPKLLIYGSSSRASGVPSRFSGSGSGTDFTLTISSLQPEDFANYYCQQSYGKPTFGGGTKVEIKRTVAAPSVFIFPPSDEQLKSGTASVVCLLNNFYPREAKVQWKVDNALQSGNSQESVTEQDSKDSTYSLSSTLTLSKADYEKHKVYACEVTHQGLSSPVTKSFNRGEC | – | –
> 80% | < 2 fold | Lib1_P1_G3 OA (antibody, human IgG4 S228P, kappa, F234A L235A, monovalent one-arm human IgG4) heavy: QVQLVQSGAEVKKPGASVKVSCKVSGYTSRQYIHWVRQAPGKGLEWMGWVTPIFGTTNYAQKFQGRVTMTEDTSTDTAYMELSSLKSEDTAVYYCAREWTGTTAFDIWGQGTLVTVSSASTKGPSVFPLAPCSRSTSESTAALGCLVKDYFPEPVTVSWNSGALTSGVHTFPAVLQSSGLYSLSSVVTVPSSSLGTKTYTCNVDHKPSNTKVDKRVESKYGPPCPPCPAPEAAGGPSVFLFPPKPKDTLMISRTPEVTCVVVDVSQEDPEVQFNWYVDGVEVHNAKTKPREEQFNSTYRVVSVLTVLHQDWLNGKEYKCKVSNKGLPSSIEKTISKAKGQPREPQVYTLPPSQEEMTKNQVSLSCAVKGFYPSDIAVEWESNGQPENNYKTTPPVLDSDGSFFLVSRLTVDKSRWQEGNVFSCSVMHEALHNHYTQKSLSLSLG ESKYGPPCPPCPAPEAAGGPSVFLFPPKPKDTLMISRTPEVTCVVVDVSQEDPEVQFNWYVDGVEVHNAKTKPREEQFNSTYRVVSVLTVLHQDWLNGKEYKCKVSNKGLPSSIEKTISKAKGQPREPQVYTLPPSQEEMTKNQVSLWCLVKGFYPSDIAVEWESNGQPENNYKTTPPVLDSDGSFFLYSRLTVDKSRWQEGNVFSCSVMHEALHNHYTQKSLSLSLG light: DIQMTQSPSSVSASVGDRVTITCRASQDIGHYLAWYQQKPGKAPKLLIYAASNRASGVPSRFSGSGSGTDFTLTISSLQPEDFANYYCQQGYSAPYGFGGGTKVEIKRTVAAPSVFIFPPSDEQLKSGTASVVCLLNNFYPREAKVQWKVDNALQSGNSQESVTEQDSKDSTYSLSSTLTLSKADYEKHKVYACEVTHQGLSSPVTKSFNRGEC | – | –
– | – | ADAM Metallopeptidase With Thrombospondin Type 1 Motif 13 (ADAMTS13) (protein) AAGGILHLELLVAVGPDVFQAHQEDTERYVLTNLNIGAELLRDPSLGAQFRVHLVKMVILTEPEGAPNITANLTSSLLSVCGWSQTINPEDDTDPGHADLVLYITRFDLELPDGNRQVRGVTQLGGACSPTWSCLITEDTGFDLGVTIAHEIGHSFGLEHDGAPGSGCGPSGHVMASDGAAPRAGLAWSPCSRRQLLSLLSAGRARCVWDPPRPQPGSAGHPPDAQPGLYYSANEQCRVAFGPKAVACTFAREHLDMCQALSCHTDPLDQSSCSRLLVPLLDGTECGVEKWCSKGRCRSLVELTPIAAVHGRWSSWGPRSPCSRSCGGGVVTRRRQCNNPRPAFGGRACVGADLQAEMCNTQACEKTQLEFMSQQCARTDGQPLRSSPGGASFYHWGAAVPHSQGDALCRHMCRAIGESFIMKRGDSFLDGTRCMPSGPREDGTLSLCVSGSCRTFGCDGRMDSQQVWDRCQVCGGDNSTCSPRKGSFTAGRAREYVTFLTVTPNLTSVYIANHRPLFTHLAVRIGGRYVVAGKMSISPNTTYPSLLEDGRVEYRVALTEDRLPRLEEIRIWGPLQEDADIQVYRRYGEEYGNLTRPDITFTYFQPKPRQAWVWAAVRGPCSVSCGAGLRWVNYSCLDQARKELVETVQCQGSQQPPAWPEACVLEPCPPYWAVGDFGPCSASCGGGLRERPVRCVEAQGSLLKTLPPARCRAGAQQPAVALETCNPQPCPARWEVSEPSSCTSAGGAGLALENETCVPGADGLEAPVTEGPGSVDEKLPAPEPCVGMSCPPGWGHLDATSAGEKAPSPWGSIRTGAQAAHVWTPAAGSCSVSCGRGLMELRFLCMDSALRVPVQEELCGLASKPGSRREVCQAVPCPARWQYKLAACSVSCGRGVVRRILYCARAHGEDDGEEILLDTQCQGLPRPEPQEACSLEPCPPRWKVMSLGPCSASCGLGTARRSVACVQLDQGQDVEVDEAACAALVRPEASVPCLIADCTYRWHVGTWMECSVSCGDGIQRRRDTCLGPQAQAPVPADFCQHLPKPVTVRGCWAGPCVGQGTPSLVPHEEAAAPGRTTATPAGASLEWSQARGLLFSPAPQPRRLLPGPQENSVQSSACGRQHLEPTGTIDMRGPGQADCAVAIGRPLGEVVTLRVLESSLNCSAGDMLLLWGRLTWRKMCRKLLDMTFSSKTNTLVVRQRCGRPGGGVLLRYGSQLAPETFYRECDMQLFGPWGEIVSPSLSPATSNAGGCRLFINVAPHARIAIHALATNMGAGTEGANASYILIRDTHSLRTTAFHGQQVLYWESESSQAEMEFSEGFLKAQASLRGQYWTLQSWVPEMQDPQSWKGKEGT | The same shift in VWF multimer pattern was observed when plasma was treated with ristocetin in the presence of 600 nM antibody including Lib1_P1_A9 and Lib1_P1_A6 | The same shift in VWF multimer pattern was observed when plasma was treated with ristocetin in the presence of 600 nM antibody including Lib1_P1_A9 and Lib1_P1_A6
